B1: Tetratricopeptide repeat protein 7A (Homo sapiens), Q9ULT0 (parent)
chain: MAAKGAHGSYLKVESELERCRAEGHWDRMPELVRQLQTLSMPGGGGNRRGSPSAAFTFPDTDDFGKLLLAEALLEQCLKENHAKIKDSMPLLEKNEPKMSEAKNYLSSILNHGRLSPQYMCEAMLILGKLHYVEGSYRDAISMYARAGIDDMSMENKPLYQMRLLSEAFVIKGLSLERLPNSIASRFRLTEREEEVITCFERASWIAQVFLQELEKTTNNSTSRHLKGCHPLDYELTYFLEAALQSAYVKNLKKGNIVKGMRELREVLRTVETKATQNFKVMAAKHLAGVLLHSLSEECYWSPLSHPLPEFMGKEESSFATQALRKPHLYEGDNLYCPKDNIEEALLLLLISESMATRDVVLSRVPEQEEDRTVSLQNAAAIYDLLSITLGRRGQYVMLSECLERAMKFAFGEFHLWYQVALSMVACGKSAYAVSLLRECVKLRPSDPTVPLMAAKVCIGSLRWLEEAEHFAMMVISLGEEAGEFLPKGYLALGLTYSLQATDATLKSKQDELHRKALQTLERAQQLAPSDPQVILYVSLQLALVRQISSAMEQLQEALKVRKDDAHALHLLALLFSAQKHHQHALDVVNMAITEHPENFNLMFTKVKLEQVLKGPEEALVTCRQVLRLWQTLYSFSQLGGLEKDGSFGEGLTMKKQSGMHLTLPDAHDADSGSRRASSIAASRLEEAMSELTMPSSVLKQGPMQLWTTLEQIWLQAAELFMEQQHLKEAGFCIQEAAGLFPTSHSVLYMRGRLAEVKGNLEEAKQLYKEALTVNPDGVRIMHSLGLMLSRLGHKSLAQKVLRDAVERQSTCHEAWQGLGEVLQAQGQNEAAVDCFLTALELEASSPVLPFSIIPREL

The variants in this test derive from B1. The following applies: with PI4K2A.
Regarding A832T, the “effect of a mutation on the interaction” value is reported as “decreasing interaction”. Turning to E71K, the “effect of a mutation on the interaction” value was “decreasing interaction”.

Values taken from IntAct's records for PubMed 24417819.
